Experimental data taken from patent US20170233703A1.

Assays:
[1] = biological target: C-terminal dCas9 constituent split at residue 1153 fused to Suntag (Streptococcus pyogenes) (UniProt Q99ZW2)
[2] = biological target: IntC:dCas9C:Suntag containing the residues from 1154 to 1368 (Streptococcus pyogenes) (UniProt Q99ZW2)
[3] = biological target: dCas9M:IntN containing the residues from 714 to 1153 (Streptococcus pyogenes) (UniProt Q99ZW2)
[4] = biological target: IntC:dCas9C-VRER:VPR split at residue 713 (two-output sensory switch, FIG. 27) (Streptococcus pyogenes) (UniProt Q99ZW2)
[5] = biological target: IntC:dCas9C:VPR split at residue 713 (dCas9 from residue 714) (Streptococcus pyogenes) (UniProt Q99ZW2)

For “N-terminal dCas9 constituent split at residue 1153 (intein fusion not stated at the place of the experiment) (from UniProt Q99ZW2)”, which TagBFP expression, three-input logic AND circuit (two split-dCas9 constituents and rapalog), HEK293 cells [1] is on record?
The TagBFP expression, three-input logic AND circuit (two split-dCas9 constituents and rapalog), HEK293 cells was 140 fold.

With “dCas9M:IntN containing the residues from 714 to 1153 (from UniProt Q99ZW2)” as the substance, how does the TagBFP expression, three-input logic AND circuit of three split-dCas9 fragments, HEK293 cells [2] read?
Its TagBFP expression, three-input logic AND circuit of three split-dCas9 fragments, HEK293 cells is 110 fold.

Which TagBFP expression, three-input logic AND circuit of three split-dCas9 fragments, HEK293 cells [3] does the source give for “dCas9N containing dCas9 residues from 1 to 713, without intein fusion (from UniProt Q99ZW2)” here?
The TagBFP expression, three-input logic AND circuit of three split-dCas9 fragments, HEK293 cells was 110 fold.

With “dCas9N:IntN split at residue 713 (from UniProt Q99ZW2)” as the substance, how does the mKate2 expression, two-input two-output sensory switch set by shRNA-FF5 and shRNA-FF4 [4] read?
Its mKate2 expression, two-input two-output sensory switch set by shRNA-FF5 and shRNA-FF4 is 20 fold.

What about the EYFP expression, two-input two-output sensory switch set by shRNA-FF5 and shRNA-FF4 [5] of the same substance?
The EYFP expression, two-input two-output sensory switch set by shRNA-FF5 and shRNA-FF4 was 20 fold.
